Assay results published in US20190127480A1 (Regeneron, published 2019).

Molecular target: T1, human PSMA expressed with an N-terminal hexahistidine tag (6h.hPSMA, R&D) (human, UniProt Q04609 44-750)
T1 construct: Bought soluble protein; also called soluble human PSMA; human PSMA protein
Experiment: SPR Biacore T-200, 37 C, antibody-capture (anti-human Fc), 6h.hPSMA as analyte
Protocol: In this example, anti-PSMA antibodies were assessed for their ability to bind to human PSMA. […] Measurements were conducted on a Biacore™ T-200 instrument (GE Healthcare).
Briefly, a CM5 Biacore™ sensor surface was derivatized via amine coupling with a monoclonal mouse anti-human Fc antibody (GE, # BR-1008-39) or monoclonal goat anti-mouse Fc antibody (GE, # BR-1008-38) to capture purified anti-PSMA antibodies. Binding studies were performed in HBSP++ buffer composed of 0.01M HEPES, 0.15M NaCl, 2 mM Ca²⁺, 2 mM Mg²⁺, 0.05% v/v Surfactant P20, pH7.4. Varying concentrations of human PSMA expressed with an N-terminal hexahistidine tag (6h.hPSMA, R&D) prepared in HBSP++ running buffer (ranging from 50 to 0.78 nM, 4-fold dilutions) were injected over the anti-PSMA antibody captured surface at a flow rate of 30 μL/minute. Antibody-reagent association was monitored for 2 minutes while dissociation in HBSP++ running buffer was monitored for 8 minutes.
Kinetic association (kₐ) and dissociation (kd) rate constants were determined by fitting the real-time sensorgrams to a 1:1 binding model using Scrubber 2.0c curve fitting software. Binding dissociation equilibrium constants (KD) and dissociative half-lives (t½) were calculated from the kinetic rate constants as: KD (M)=kd/kₐ; and t_{1/2} (min)=(ln 2/(60*kd).

T1 sequence (Q04609 other isoform, or with tags, fused parts or gaps limits assumed): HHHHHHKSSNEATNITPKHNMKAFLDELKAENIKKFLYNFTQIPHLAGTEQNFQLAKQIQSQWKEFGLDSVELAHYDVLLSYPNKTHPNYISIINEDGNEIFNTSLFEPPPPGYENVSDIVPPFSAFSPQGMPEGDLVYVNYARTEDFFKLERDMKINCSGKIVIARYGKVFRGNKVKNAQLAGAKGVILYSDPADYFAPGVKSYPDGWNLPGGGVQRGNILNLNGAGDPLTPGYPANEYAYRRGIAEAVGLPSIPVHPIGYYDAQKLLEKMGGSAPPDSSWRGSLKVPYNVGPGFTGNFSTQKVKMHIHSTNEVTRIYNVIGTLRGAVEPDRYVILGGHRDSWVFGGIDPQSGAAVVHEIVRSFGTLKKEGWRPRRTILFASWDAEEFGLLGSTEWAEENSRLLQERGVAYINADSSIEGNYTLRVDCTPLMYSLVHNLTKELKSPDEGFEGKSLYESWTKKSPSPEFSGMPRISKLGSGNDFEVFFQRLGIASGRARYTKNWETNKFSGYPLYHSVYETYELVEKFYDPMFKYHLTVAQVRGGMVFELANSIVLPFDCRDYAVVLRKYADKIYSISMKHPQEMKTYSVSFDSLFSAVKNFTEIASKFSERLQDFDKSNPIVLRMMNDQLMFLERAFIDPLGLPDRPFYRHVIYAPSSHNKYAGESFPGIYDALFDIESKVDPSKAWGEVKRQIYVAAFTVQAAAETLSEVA

Binder | Kd | koff | kon | t1/2
H1H11792P2 (antibody, human IgG1, V domains shown, human IgG1) VH: QVQLVESGGGVVQPGRSLRLSCAASGFTFSSYGMHWVRQPPGKGLEWVAIMSYDGSNKYYADSVKGRFTISRDNSKNTLYLQMNSLRVEDTAVYYCAKDQYYDFLTFDYTLDYWGQGTLVTVSS VL: DIQMTQSPSSLSASVGDSVTITCRASQSINNYLNWYQQKPGKAPKLLIYTASSLLSGVPSRFSGSGSGTDFTLTISGLHPEDFATYFCQQSFSTPPITFGQGTRLDIK | 0.205 nM | 9.7e-05 s⁻¹ | 473000 M⁻¹ s⁻¹ | 119 min
H1H11805P2 (antibody, human IgG1, V domains shown, human IgG1) VH: EVQLVESGGGLVQPGGSLRLSCVVSGFTFNNYWMSWVRQAPGKGLEWVANIKKDGSEKYYVDSVKGRFTISRDNAKNSLYLQMNSLRAEDTAVYYCARDIMATIIDWGQGTLVTVSS VL: DIQMTQSPSSLSASVGDSVTITCRASQSINNYLNWYQQKPGKAPKLLIYTASSLLSGVPSRFSGSGSGTDFTLTISGLHPEDFATYFCQQSFSTPPITFGQGTRLDIK | 75.6 nM | 0.00974 s⁻¹ | 129000 M⁻¹ s⁻¹ | 1.2 min
H1H11835P2 (antibody, human IgG1, V domains shown, human IgG1) VH: EVQLVESGGGLVQSGGSLRLSCEASGFTFSNYWMTWIRQGPGKGLEWVANIKPDGTENYYVDSVKGRFTISRDNARNSLYLQMTSLKAEDTAVYYCGRMIQFVINIWGQGTLVTVSS VL: DIQMTQSPSSLSASVGDSVTITCRASQSINNYLNWYQQKPGKAPKLLIYTASSLLSGVPSRFSGSGSGTDFTLTISGLHPEDFATYFCQQSFSTPPITFGQGTRLDIK | 14 nM | 0.00246 s⁻¹ | 175000 M⁻¹ s⁻¹ | 4.7 min
H1H11804P2 (antibody, human IgG1, V domains shown, human IgG1) VH: QVQLVESGGGVVQPGRSLRLSCAASGFTFISYGMHWVRQAPGKGLEWVAVISYDGSNKYYADSVKGRFTISRDNSKNTLFLQMNSLRAEDTAVYYCAKNYDFWNGYVGYYGMDVWGQGTTVTVSS VL: DIQMTQSPSSLSASVGDSVTITCRASQSINNYLNWYQQKPGKAPKLLIYTASSLLSGVPSRFSGSGSGTDFTLTISGLHPEDFATYFCQQSFSTPPITFGQGTRLDIK | 39.4 nM | 0.000801 s⁻¹ | 20300 M⁻¹ s⁻¹ | 14.4 min
H1H11808P2 (antibody, human IgG1, V domains shown, human IgG1) VH: QVQLVESGGGVVQPGRSLRLSCAASGFPFNSYGMHWVRQAPGKGLEWVAVISYDGSNRYYADSVKGRFTISRDNSKYTLDLHVSSLTTDDTAVYYCARDRRYGKWEQLYPDYLGQGTLVTVSS VL: DIQMTQSPSSLSASVGDSVTITCRASQSINNYLNWYQQKPGKAPKLLIYTASSLLSGVPSRFSGSGSGTDFTLTISGLHPEDFATYFCQQSFSTPPITFGQGTRLDIK | ≤ 0.0563 nM | ≤ 1e-05 s⁻¹ | 178000 M⁻¹ s⁻¹ | ≥ 1160 min
H1H11803P2 (antibody, human IgG1, V domains shown, human IgG1) VH: QVQLVESGGGVVQPGRSLRLSCAASGFTFSSYGMHWVRQAPGKGLEWVAVIWYDGNNKYYADSVKGRFTISRDNSKKTLYLQMTSLRAEDTAVYYCARDQYYDILTADNTLDYWGQGTLVTVSS VL: DIQMTQSPSSLSASVGDSVTITCRASQSINNYLNWYQQKPGKAPKLLIYTASSLLSGVPSRFSGSGSGTDFTLTISGLHPEDFATYFCQQSFSTPPITFGQGTRLDIK | 1.33 nM | 0.000608 s⁻¹ | 457000 M⁻¹ s⁻¹ | 19 min
H1H11836P2 (antibody, human IgG1, V domains shown, human IgG1) VH: QVQLVESGGGVVQPGRSLRLSCAASGFTFRSYGMHWVRQAPGKGLEWVAFISYDESNKHQADSVKGRFTISRDNSKNTLYLQMNSLRAEDTAVYFCAKDQYYDFLTAYDTLDYWGQGTLVTVSS VL: DIQMTQSPSSLSASVGDSVTITCRASQSINNYLNWYQQKPGKAPKLLIYTASSLLSGVPSRFSGSGSGTDFTLTISGLHPEDFATYFCQQSFSTPPITFGQGTRLDIK | 0.855 nM | 0.00028 s⁻¹ | 327000 M⁻¹ s⁻¹ | 41.3 min
